Assay results as given in patent US20130336893A1 (Sanofi, published 2013).
Where no end group is shown, it is not given here. [ ]: non-standard residue; d: D form.

Key:
[1] = biological target: human GLP-1 receptor (human, UniProt P43220 24-463); assay: cell-based or functional assay
[2] = biological target: human glucagon receptor (human, UniProt P47871 26-477); assay: cell-based or functional assay
Chain of human glucagon receptor (P47871 26-477): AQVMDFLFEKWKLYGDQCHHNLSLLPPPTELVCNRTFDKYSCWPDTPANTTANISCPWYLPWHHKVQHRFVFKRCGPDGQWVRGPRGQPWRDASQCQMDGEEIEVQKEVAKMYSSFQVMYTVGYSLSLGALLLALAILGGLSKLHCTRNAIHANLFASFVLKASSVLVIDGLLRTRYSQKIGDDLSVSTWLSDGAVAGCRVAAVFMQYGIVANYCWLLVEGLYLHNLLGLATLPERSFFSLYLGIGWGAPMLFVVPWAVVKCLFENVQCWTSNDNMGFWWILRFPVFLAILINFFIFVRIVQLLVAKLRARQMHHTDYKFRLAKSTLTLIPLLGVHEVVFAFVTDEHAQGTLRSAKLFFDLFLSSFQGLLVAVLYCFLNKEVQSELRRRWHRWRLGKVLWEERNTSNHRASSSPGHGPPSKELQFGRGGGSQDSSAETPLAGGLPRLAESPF

B1: SEQ ID NO: (43) (peptide)
peptide: H[dS]QGTFTSDLSKQFDSRRAQDFIEWLKNGGPSSGAPPPS-NH2
modifications: N-terminus assumed
SMILES: CC[C@H](C)[C@H](NC(=O)[C@H](Cc1ccccc1)NC(=O)[C@H](CC(=O)O)NC(=O)[C@H](CCC(N)=O)NC(=O)[C@H](C)NC(=O)[C@H](CCCNC(=N)N)NC(=O)[C@H](CCCNC(=N)N)NC(=O)[C@H](CO)NC(=O)[C@H](CC(=O)O)NC(=O)[C@H](Cc1ccccc1)NC(=O)[C@H](CCC(N)=O)NC(=O)[C@H](CCCCN)NC(=O)[C@H](CO)NC(=O)[C@H](CC(C)C)NC(=O)[C@H](CC(=O)O)NC(=O)[C@H](CO)NC(=O)[C@@H](NC(=O)[C@H](Cc1ccccc1)NC(=O)[C@@H](NC(=O)CNC(=O)[C@H](CCC(N)=O)NC(=O)[C@@H](CO)NC(=O)[C@@H](N)Cc1c[nH]cn1)[C@@H](C)O)[C@@H](C)O)C(=O)N[C@@H](CCC(=O)O)C(=O)N[C@@H](Cc1c[nH]c2ccccc12)C(=O)N[C@@H](CC(C)C)C(=O)N[C@@H](CCCCN)C(=O)N[C@@H](CC(N)=O)C(=O)NCC(=O)NCC(=O)N1CCC[C@H]1C(=O)N[C@@H](CO)C(=O)N[C@@H](CO)C(=O)NCC(=O)N[C@@H](C)C(=O)N1CCC[C@H]1C(=O)N1CCC[C@H]1C(=O)N1CCC[C@H]1C(=O)N[C@@H](CO)C(N)=O
EC50 hGLP-1R (cAMP formation) [1]: 0.3 nM | EC50 hGlucagonR (cAMP formation) [2]: 0.148 nM
